T1: human FcγRIIa-H131 (human, UniProt P12318 34-217, limits assumed)
T1 construct: also called hCD32a/FcγRIIa-H131
T1 sequence (looked up): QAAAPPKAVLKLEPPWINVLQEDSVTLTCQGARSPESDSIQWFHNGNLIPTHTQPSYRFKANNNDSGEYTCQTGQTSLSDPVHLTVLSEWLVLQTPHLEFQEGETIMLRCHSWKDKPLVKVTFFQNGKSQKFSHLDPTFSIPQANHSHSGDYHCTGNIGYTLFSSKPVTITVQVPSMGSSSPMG

B1: 5F11-45-V9-DT-sup (antibody, human IgG1, kappa)
heavy chain: QVQLVQSGAEVKKPGSSVKVSCKASGYTFTDLSMHWVRQAPGQGLEWMGYITPSSGYTAYNQKFKGKTTLTADKSTSTAYMELSSLRSEDTAVYYCARLILQRGAYWGQGTLVTVSSASTKGPSVFPLAPSSKSTSGGTAALGCLVKDYFPEPVTVSWNSGALTSGVHTFPAVLQSSGLYSLSSVVTVPSSSLGTQTYICNVNHKPSNTKVDKRVEPKSCDKTHTCPPCPAPELLGDDSVFLFPPKPKDTLMISRTPEVTCVVVDVSHETGEVKFNWYVDGVEVHNAKTKPREEQYNSTYRVVSVLTVLHQDWLNGKEYKCKVSNKALPRPIEKTISKAKGQPREPQVYTLPPSREEMTKNQVSLTCLVKGFYPSDIAVEWESNGQPENNYKTTPPVLDSDGSFFLYSKLTVDKSRWQQGNVFSCSVMHEALHNHYTQKSLSLSPG
light chain: DIVLTQSPDSLAVSLGERATINCRASKNVDSYGNSFMHWYQQKPGQPPKLLIYRASNLESGVPDRFSGSGSGTDFTLTISSLQAEDVAVYYCQQSNEDPLTFGQGTKLEIKRTVAAPSVFIFPPSDEQLKSGTASVVCLLNNFYPREAKVQWKVDNALQSGNSQESVTEQDSKDSTYSLSSTLTLSKADYEKHKVYACEVTHQGLSSPVTKSFNRGEC
notes: Tested as a supernatant of antibody producing cells; also called 5F11-45 V9 D270T
B2: 12D6-24-V9-DT-sup (antibody)
heavy: QVQLVQSGAEVKKPGASVKVSCKASGYTFTGYNMNWVRQAPGQGLEWMGNIDPYYGNTNYNQKFKGRVTMTTDTSTSTAYMELRSLRSDDTAVYYCARLGLQLYALDYWGQGTTVTVSSASTKGPSVFPLAPSSKSTSGGTAALGCLVKDYFPEPVTVSWNSGALTSGVHTFPAVLQSSGLYSLSSVVTVPSSSLGTQTYICNVNHKPSNTKVDKRVEPKSCDKTHTCPPCPAPELLGDDSVFLFPPKPKDTLMISRTPEVTCVVVDVSHETGEVKFNWYVDGVEVHNAKTKPREEQYNSTYRVVSVLTVLHQDWLNGKEYKCKVSNKALPRPIEKTISKAKGQPREPQVYTLPPSREEMTKNQVSLTCLVKGFYPSDIAVEWESNGQPENNYKTTPPVLDSDGSFFLYSKLTVDKSRWQQGNVFSCSVMHEALHNHYTQKSLSLSPG
light: DIVMTQTPLSLPVTPGEPASISCRSSQSLVHSNANTYLHWYLQKPGQSPQLLIYKLTNRFFGVPDRFSGSGSGTDFTLKISRVEAEDVGVYYCSQSIHVPWTFGGGTKVEIKRTVAAPSVFIFPPSDEQLKSGTASVVCLLNNFYPREAKVQWKVDNALQSGNSQESVTEQDSKDSTYSLSSTLTLSKADYEKHKVYACEVTHQGLSSPVTKSFNRGEC
notes: Tested as a supernatant of antibody producing cells; also called 12D6-24 V9 D270T; copies: 2 + 2

Assays:
[1] = molecular target: human FcγRIIa-H131 (human) (UniProt P12318); experiment: Fc variant affinity for Fcγ receptor; method not stated
human FcγRIIb (human) = human FcγRIIb (human) (UniProt P31994); experiment: as above
Chain of human FcγRIIb (human) (P31994 43-217 limits assumed): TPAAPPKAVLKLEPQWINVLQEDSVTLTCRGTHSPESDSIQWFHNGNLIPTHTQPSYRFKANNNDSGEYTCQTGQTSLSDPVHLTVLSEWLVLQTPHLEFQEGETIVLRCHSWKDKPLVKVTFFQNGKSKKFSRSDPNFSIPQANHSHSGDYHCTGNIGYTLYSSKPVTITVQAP

[2] = molecular target: human FcγRIIa-R131 (human) (UniProt P12318); experiment: as above
human FcγRIIa-H131 [3] = molecular target: T1, human FcγRIIa-H131; experiment: BLI (FORTEBIO Octet), %Rmax; supernatant 5F11-45-V9-DT-sup; receptor hCD32a/FcγRIIa-H131
human FcγRIIa-H131 [4] = molecular target: T1, human FcγRIIa-H131; experiment: BLI (FORTEBIO Octet), %Rmax; supernatant 12D6-24-V9-DT-sup; receptor hCD32a/FcγRIIa-H131

Molecule | Kd [1] | Kd (human FcγRIIb (human)) | Kd [2] | further results
Fc sequence variant SE (antibody) | 520 nM | 98 nM | 22 nM | 
Fc sequence variant IgG1f (antibody with human IgG1f constant domain) | 530 nM | 3900 nM | 850 nM | 
Fc sequence variant P238D (antibody) |  | 950 nM |  | 
Fc sequence variant SELF (antibody) |  |  | 2 nM | 
B1 |  |  |  | binding result (human FcγRIIa-H131 [3]): no binding (tested: 10 µM)
B2 |  |  |  | binding result (human FcγRIIa-H131 [4]): no binding (tested: 10 µM)
